Our source for the IC50 of inhibition of the phosphorylation of SRSF1 by SRPK1ΔNS3 (in vitro kinase assay, [32P]ATP); blocked pair SRPK1-SRSF1 values is PMC11211491, “Design of a covalent protein-protein interaction inhibitor of SRPKs to suppress angiogenesis and invasion of cancer cells” (Communications Chemistry, 2024).

aryl‑sulfonyl fluoride = aryl-sulfonyl fluoride group, a lysine-reactive covalent warhead for SuFEx reactions

The test has as its target SRPK1ΔNS3 (UniProt Q96SB4).

For the molecule Ac-RERARTRRK(aryl‑sulfonyl fluoride)RARTRERARTR-NH2 [DBS1-1], the IC50 of inhibition of the phosphorylation of SRSF1 by SRPK1ΔNS3 (in vitro kinase assay, [32P]ATP); blocked pair SRPK1-SRSF1 was 640 nM.
